Measurements: paper PMC7397094

Assays:
[1] = target: human recombinant RetGC1 (retinal membrane guanylyl cyclase 1) (human) (UniProt Q02846)
[2] = target: human recombinant RetGC1 (retinal membrane guanylyl cyclase 1) (human) (UniProt Q02846); remark: listed apart in the source

Chain of UniProt Q02846 (Q02846 52-1103): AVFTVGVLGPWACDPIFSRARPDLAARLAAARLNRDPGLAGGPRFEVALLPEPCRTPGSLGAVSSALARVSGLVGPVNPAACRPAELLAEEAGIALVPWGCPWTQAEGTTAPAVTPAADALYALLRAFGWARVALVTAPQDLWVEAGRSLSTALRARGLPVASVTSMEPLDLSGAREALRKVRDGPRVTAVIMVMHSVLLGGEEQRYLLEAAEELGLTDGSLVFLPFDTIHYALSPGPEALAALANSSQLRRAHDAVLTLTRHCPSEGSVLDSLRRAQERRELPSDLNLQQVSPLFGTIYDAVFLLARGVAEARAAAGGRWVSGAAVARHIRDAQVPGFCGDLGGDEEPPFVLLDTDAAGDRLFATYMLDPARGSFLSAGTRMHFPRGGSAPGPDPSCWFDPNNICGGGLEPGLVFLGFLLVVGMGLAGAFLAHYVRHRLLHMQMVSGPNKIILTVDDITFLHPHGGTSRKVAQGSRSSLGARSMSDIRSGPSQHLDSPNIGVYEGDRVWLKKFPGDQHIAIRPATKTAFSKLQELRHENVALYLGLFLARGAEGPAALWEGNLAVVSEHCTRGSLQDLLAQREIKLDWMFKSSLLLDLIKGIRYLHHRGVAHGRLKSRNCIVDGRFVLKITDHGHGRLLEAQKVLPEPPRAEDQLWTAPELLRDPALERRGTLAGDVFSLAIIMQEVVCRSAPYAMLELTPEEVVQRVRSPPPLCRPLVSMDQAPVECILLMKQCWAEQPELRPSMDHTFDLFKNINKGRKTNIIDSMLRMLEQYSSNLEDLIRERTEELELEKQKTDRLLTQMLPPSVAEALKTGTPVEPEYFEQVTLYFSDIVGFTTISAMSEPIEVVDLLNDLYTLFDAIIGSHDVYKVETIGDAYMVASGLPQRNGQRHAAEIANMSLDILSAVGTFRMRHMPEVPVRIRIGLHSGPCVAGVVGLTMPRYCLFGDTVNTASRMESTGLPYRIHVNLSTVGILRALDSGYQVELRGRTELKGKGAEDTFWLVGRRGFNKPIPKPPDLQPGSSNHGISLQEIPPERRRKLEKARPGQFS

RetGC1 activity left with 100 nM RD3, % of that without RD3 (1.5 uM GCAP1) [1] [%]	IC50 of inhibition of GCAP1-activated RetGC1 activity [2] [nM]	Substance
10.8		RD3 S65Y (from UniProt Q7Z3Z2 1-195) (natural protein)
10.7		RD3 P75R (from UniProt Q7Z3Z2 1-195) (natural protein)
11.5		RD3 S20Y/P21R (from UniProt Q7Z3Z2 1-195) (natural protein)
10.8		RD3 Q116Y (from UniProt Q7Z3Z2 1-195) (natural protein)
3.9		RD3 3L→S5 deletion (from UniProt Q7Z3Z2 1-195) (natural protein)
12.1		RD3 L103R (from UniProt Q7Z3Z2 1-195) (natural protein)
16.4		RD3 Y71E (from UniProt Q7Z3Z2 1-195) (natural protein)
9.1		RD3 S143Y (from UniProt Q7Z3Z2 1-195) (natural protein)
12.4		RD3 50AVRK53→50KAIE53 (from UniProt Q7Z3Z2 1-195) (natural protein)
14.9		RD3 T18D/R19A (from UniProt Q7Z3Z2 1-195) (natural protein)
6.6		RD3 E27R (from UniProt Q7Z3Z2 1-195) (natural protein)
7.3		RD3 F153R (from UniProt Q7Z3Z2 1-195) (natural protein)
6.9		RD3 C55D (from UniProt Q7Z3Z2 1-195) (natural protein)
9.2		RD3 T56H (from UniProt Q7Z3Z2 1-195) (natural protein)
5.5		RD3 G35Y (from UniProt Q7Z3Z2 1-195) (natural protein)
5.9		RD3 L98R (from UniProt Q7Z3Z2 1-195) (natural protein)
15.4		RD3 Y71G (from UniProt Q7Z3Z2 1-195) (natural protein)
6.6		RD3 E39R (from UniProt Q7Z3Z2 1-195) (natural protein)
8.1		RD3 T34Q (from UniProt Q7Z3Z2 1-195) (natural protein)
7.5		RD3 154KTRAR158→154ENSES158 (from UniProt Q7Z3Z2 1-195) (natural protein)
9		RD3 S69Y (from UniProt Q7Z3Z2 1-195) (natural protein)
7.3		RD3 L144W (from UniProt Q7Z3Z2 1-195) (natural protein)
16.7		RD3 V58Q (from UniProt Q7Z3Z2 1-195) (natural protein)
2.5		RD3 171EDVERD176→171KKAKQR176 (from UniProt Q7Z3Z2 1-195) (natural protein)

Further lines, the substance ahead of its results:

Substance	RetGC1 activity left with 100 nM RD3, % of that without RD3 (1.5 uM GCAP1) [1] [%]	IC50 of inhibition of GCAP1-activated RetGC1 activity [2] [nM]
RD3 R119S (from UniProt Q7Z3Z2 1-195) (natural protein)	12	
RD3 E23R (from UniProt Q7Z3Z2 1-195) (natural protein)	8.2	
RD3 A151R/T152Q (from UniProt Q7Z3Z2 1-195) (natural protein)	7.1	
RD3 R101A/Q102L (from UniProt Q7Z3Z2 1-195) (natural protein)		4460
RD3 R99E (from UniProt Q7Z3Z2 1-195) (natural protein)	27.1	35.5
RD3 S120Y (from UniProt Q7Z3Z2 1-195) (natural protein)	8.2	
RD3 A22E (from UniProt Q7Z3Z2 1-195) (natural protein)	6.4	
RD3 P90A (from UniProt Q7Z3Z2 1-195) (natural protein)	24.2	
RD3 77ERLQ80→77QLRE80 (from UniProt Q7Z3Z2 1-195) (natural protein)	11.5	
RD3 R42E (from UniProt Q7Z3Z2 1-195) (natural protein)	14.5	
RD3 186SMP188→186PRS188 (from UniProt Q7Z3Z2 1-195) (natural protein)	12.7	
RD3 E127R/R128E (from UniProt Q7Z3Z2 1-195) (natural protein)	10.1	
RD3 E110R (from UniProt Q7Z3Z2 1-195) (natural protein)	9.6	
RD3 T66K (from UniProt Q7Z3Z2 1-195) (natural protein)	7.3	
RD3 Q102L (from UniProt Q7Z3Z2 1-195) (natural protein)	28.5	59
RD3 A135R (from UniProt Q7Z3Z2 1-195) (natural protein)	9.1	
RD3 S91Y (from UniProt Q7Z3Z2 1-195) (natural protein)	13.3	
RD3 164SDIRT168→164RSDTI168 (from UniProt Q7Z3Z2 1-195) (natural protein)	9.5	
RD3 P67D (from UniProt Q7Z3Z2 1-195) (natural protein)	11	
RD3 147RGSL150→147GRLS150 (from UniProt Q7Z3Z2 1-195) (natural protein)	9.6	
RD3 D72R (from UniProt Q7Z3Z2 1-195) (natural protein)	5.5	
RD3 R68D (from UniProt Q7Z3Z2 1-195) (natural protein)	12.4	
RD3 R38S (from UniProt Q7Z3Z2 1-195) (natural protein)	18.2	
RD3 E41R (from UniProt Q7Z3Z2 1-195) (natural protein)	12.6	

Substance	RetGC1 activity left with 100 nM RD3, % of that without RD3 (1.5 uM GCAP1) [1] [%]	IC50 of inhibition of GCAP1-activated RetGC1 activity [2] [nM]
RD3 M24D (from UniProt Q7Z3Z2 1-195) (natural protein)	10.9	
RD3 T70R (from UniProt Q7Z3Z2 1-195) (natural protein)	8.2	
RD3 45RER47→45AAA47 (from UniProt Q7Z3Z2 1-195) (natural protein)	17.9	
RD3 132EEE134→132QQQ134 (from UniProt Q7Z3Z2 1-195) (natural protein)	11.8	
RD3 R145D (from UniProt Q7Z3Z2 1-195) (natural protein)	9.2	
RD3 178PPP180→178AAA180 (from UniProt Q7Z3Z2 1-195) (natural protein)	8.5	
RD3 Q112E/E113Q (from UniProt Q7Z3Z2 1-195) (natural protein)	9.2	
RD3 W6L (from UniProt Q7Z3Z2 1-195) (natural protein)	11.1	
RD3 E108K (from UniProt Q7Z3Z2 1-195) (natural protein)	7.1	
RD3 M31R (from UniProt Q7Z3Z2 1-195) (natural protein)	6.6	
RD3 W142A (from UniProt Q7Z3Z2 1-195) (natural protein)	7.9	
RD3 Q43R (from UniProt Q7Z3Z2 1-195) (natural protein)	5.3	
RD3 P67G (from UniProt Q7Z3Z2 1-195) (natural protein)	11.3	
RD3 V86R/K87A (from UniProt Q7Z3Z2 1-195) (natural protein)	7.1	
RD3 I76R (from UniProt Q7Z3Z2 1-195) (natural protein)	7.5	
RD3 L98Y (from UniProt Q7Z3Z2 1-195) (natural protein)	9.9	
RD3 E41A (from UniProt Q7Z3Z2 1-195) (natural protein)	10.3	
RD3 137KLTRQ141→137QRKTL141 (from UniProt Q7Z3Z2 1-195) (natural protein)	8.6	
RD3 T28R (from UniProt Q7Z3Z2 1-195) (natural protein)	15.3	
RD3 A64R (from UniProt Q7Z3Z2 1-195) (natural protein)	15	
RD3 I97Y (from UniProt Q7Z3Z2 1-195) (natural protein)	55	
RD3 A22Y (from UniProt Q7Z3Z2 1-195) (natural protein)	14.4	
RD3 Q123E/E124Q (from UniProt Q7Z3Z2 1-195) (natural protein)	11.9	
RD3 D83R (from UniProt Q7Z3Z2 1-195) (natural protein)	7.2	
